Biological target: T1, CTLA4 antigen (CTLA4 protein obtained by cleaving the CTLA4-mFc fusion protein with TEV protease) (human, UniProt P16410 36-161)
T1 construct: extracellular domain; after cleavage part of the TEV site may remain at the C-terminus; also called CTLA4ECD
T1 sequence (looked up): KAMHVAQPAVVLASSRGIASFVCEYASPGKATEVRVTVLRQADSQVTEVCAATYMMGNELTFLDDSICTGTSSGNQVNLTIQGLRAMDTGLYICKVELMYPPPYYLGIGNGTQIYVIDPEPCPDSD
Assay: Octet (ForteBio) BLI; antibody amine-coupled to AR2G sensor, CTLA4 antigen in solution
Procedure: The dynamic parameters of the antigen—antibody binding were determined using the ForteBio molecular interaction analyzer (Octet). The CTLA4-mFc fusion protein prepared in Example 1 was cleaved using the TEV protease, and the CTLA4 antigen was obtained by purification on a column. […] After equilibration in PBST, the CTLA4 antigen was added for binding. […] Dissociation occurred in PBST.

B1: anti-CTLA4 antibody 4G10 (antibody, V domains shown)
VH: QVKLQESGPELVKPGASMKISCKASGYSFTGYTMNWVKQSHGKNLEWIGLINPYNNITNYNQKFMGKATFTVDKSSSTAYMELLRLTSEDSGVYFCARLDYRSYWGQGTLVTVSA
VL: QAVVTQESALTTSPGETVTLTCRSSTGAVTTSNFANWVQEKPDHLFTSLIGGTNNRAPGVPARFSGSLIGDKAALTITGAQTEDEAIYFCALWYSNHWVFGGGTKLTVLG
notes: Mouse monoclonal antibody purified from hybridoma supernatant; also called monoclonal antibody secreted by hybridoma cell line LT002 (CTLA4-4G10)
  Kd: 301 pM
  koff: 0.000114 s⁻¹
  kon: 378000 M⁻¹ s⁻¹
